Reference: patent EP4635976A1 (Medigene Immunotherapies GmbH, dated 2025)

Legend:
Assay in all cases: cell-based or functional assay
[1] = target: mismatched peptide #9 …
[2] = target: mismatched peptide #236 …
[3] = target: mismatched peptide #246 …
[4] = target: mismatched peptide #8 …
[5] = target: mismatched peptide #265 …
[6] = target: mismatched peptide #221 …
[7] = target: mismatched peptide #24 …
[8] = target: mismatched peptide #62 …
[9] = target: mismatched peptide #324 …
[10] = target: mismatched peptide #239 …
[11] = target: mismatched peptide #240 …
[12] = target: mismatched peptide #79 …
[13] = target: mismatched peptide #247 …
[14] = target: mismatched peptide #278 …
[15] = target: mismatched peptide #244 …
[16] = target: mismatched peptide #41 …
[17] = target: mismatched peptide #116 …
[18] = target: mismatched peptide #15 …
[19] = target: mismatched peptide #76 …
[20] = target: mismatched peptide #13 …
[21] = target: mismatched peptide #243 …
[22] = target: mismatched peptide #7 …
[23] = target: mismatched peptide #160 …
[24] = target: mismatched peptide #323 …
[25] = target: mismatched peptide #31 …
[26] = target: mismatched peptide #45 …
[27] = target: mismatched peptide #228 …
[28] = target: mismatched peptide #257 …
[29] = target: mismatched peptide #314 …

- IFN-γ release (IFNg-ELISA), donor MIT 045 [1]: 26.5 pg/mL
- IFN-γ release (IFNg-ELISA), donor MIT038 [2]: 256 pg/mL
- IFN-γ release (IFNg-ELISA), donor MIT 045 [2]: 32.3 pg/mL
- IFN-γ release (IFNg-ELISA), donor MIT038 [3]: 321 pg/mL
- IFN-γ release (IFNg-ELISA), donor MIT 045 [3]: 40.9 pg/mL
- IFN-γ release (IFNg-ELISA), donor MIT 045 [4]: 24.7 pg/mL
- IFN-γ release (IFNg-ELISA), donor MIT038 [5]: 366 pg/mL
- IFN-γ release (IFNg-ELISA), donor MIT 045 [5]: 43.2 pg/mL
- IFN-γ release (IFNg-ELISA), donor MIT038 [6]: 789 pg/mL
- IFN-γ release (IFNg-ELISA), donor MIT 045 [6]: 101 pg/mL
- IFN-γ release (IFNg-ELISA), donor MIT 045 [7]: 24.3 pg/mL
- IFN-γ release (IFNg-ELISA), donor MIT038 [8]: 819 pg/mL
- IFN-γ release (IFNg-ELISA), donor MIT 045 [8]: 88.3 pg/mL
- IFN-γ release (IFNg-ELISA), donor MIT038 [9]: 432 pg/mL
- IFN-γ release (IFNg-ELISA), donor MIT038 [10]: 229 pg/mL
- IFN-γ release (IFNg-ELISA), donor MIT 045 [10]: 32.1 pg/mL
- IFN-γ release (IFNg-ELISA), donor MIT038 [11]: 237 pg/mL
- IFN-γ release (IFNg-ELISA), donor MIT 045 [11]: 23.4 pg/mL
- IFN-γ release (IFNg-ELISA), donor MIT038 [12]: 292 pg/mL
- IFN-γ release (IFNg-ELISA), donor MIT 045 [12]: 40.3 pg/mL
- IFN-γ release (IFNg-ELISA), donor MIT038 [13]: 681 pg/mL
- IFN-γ release (IFNg-ELISA), donor MIT 045 [13]: 80.5 pg/mL
- IFN-γ release (IFNg-ELISA), donor MIT038 [14]: 464 pg/mL
- IFN-γ release (IFNg-ELISA), donor MIT 045 [14]: 50.8 pg/mL
- IFN-γ release (IFNg-ELISA), donor MIT038 [15]: 441 pg/mL
- IFN-γ release (IFNg-ELISA), donor MIT 045 [15]: 45.4 pg/mL
- IFN-γ release (IFNg-ELISA), donor MIT038 [16]: 298 pg/mL
- IFN-γ release (IFNg-ELISA), donor MIT 045 [16]: 55.6 pg/mL
- IFN-γ release (IFNg-ELISA), donor MIT 045 [17]: 32.4 pg/mL
- IFN-γ release (IFNg-ELISA), donor MIT038 [18]: 282 pg/mL
- IFN-γ release (IFNg-ELISA), donor MIT 045 [18]: 47.1 pg/mL
- IFN-γ release (IFNg-ELISA), donor MIT038 [19]: 769 pg/mL
- IFN-γ release (IFNg-ELISA), donor MIT 045 [19]: 150 pg/mL
- IFN-γ release (IFNg-ELISA), donor MIT 045 [20]: 20.8 pg/mL
- IFN-γ release (IFNg-ELISA), donor MIT038 [21]: 380 pg/mL
- IFN-γ release (IFNg-ELISA), donor MIT 045 [21]: 47.2 pg/mL
- IFN-γ release (IFNg-ELISA), donor MIT 045 [22]: 24 pg/mL
- IFN-γ release (IFNg-ELISA), donor MIT038 [23]: 3620 pg/mL
- IFN-γ release (IFNg-ELISA), donor MIT 045 [23]: 1290 pg/mL
- IFN-γ release (IFNg-ELISA), donor MIT038 [24]: 3700 pg/mL
- IFN-γ release (IFNg-ELISA), donor MIT 045 [24]: 658 pg/mL
- IFN-γ release (IFNg-ELISA), donor MIT038 [25]: 2130 pg/mL
- IFN-γ release (IFNg-ELISA), donor MIT 045 [25]: 887 pg/mL
- IFN-γ release (IFNg-ELISA), donor MIT038 [26]: 1500 pg/mL
- IFN-γ release (IFNg-ELISA), donor MIT 045 [26]: 177 pg/mL
- IFN-γ release (IFNg-ELISA), donor MIT038 [27]: 234 pg/mL
- IFN-γ release (IFNg-ELISA), donor MIT 045 [27]: 35.4 pg/mL
- IFN-γ release (IFNg-ELISA), donor MIT038 [28]: 383 pg/mL
- IFN-γ release (IFNg-ELISA), donor MIT 045 [28]: 57.9 pg/mL
- IFN-γ release (IFNg-ELISA), donor MIT 045 [29]: 26.7 pg/mL
B1: NY-ESO specific TCR (T11.8-10-17), wild type (TCR)
TCR alpha: QKEVEQNSGPLSVPEGAIASLNCTYSDRGSQSFFWYRQYSGKSPELIMFIYSNGDKEDGRFTAQLNKASQYVSLLIRDSQPSDSATYLCAADDKIIFGKGTRLHILPNIQNPDPAVYQLRDSKSSDKSVCLFTDFDSQTNVSQSKDSDVYITDKTVLDMRSMDFKSNSAVAWSNKSDFACANAFNNSIIPEDTFFPSSDVPCDVKLVEKSFETDTNLNFQNLSVIGFRILLLKVAGFNLLMTLRLWSS
TCR beta: DAGVIQSPRHEVTEMGQEVTLRCKPISGHDYLFWYRQTMMRGLELLIYFNNNVPIDDSGMPEDRFSAKMPNASFSTLKIQPSEPRDSAVYFCASSRGGSGYTFGSGTRLTVVEDLNKVFPPEVAVFEPSKAEIAHTQKATLVCLATGFFPDHVELSWWVNGKEVHSGVSTDPQPLKEQPALNDSRYCLSSRLRVSATFWQNPRNHFRCQVQFYGLSENDEWTQDRAKPVTQIVSAEAWGRADCGITSASYHQGVLSATILYEILLGKATLYAVLVSALVLMAMVKRKDF
